Laboratory results taken from patent publication US6383734B1, “Method to determine inhibition of PAK3 activation of Raf-1” (Advanced Research and Technology Institute, Inc., priority 1998, dated 2002).

Tested on: Raf-1 serine 338/339
Experiment: In vitro kinase assay with Raf-1 peptide and Raf-CR3 as substrates
Assay type: biochemical, human
Conditions: PAK3 immunoprecipitated from rat spleen lysates, FIG. 4b
Procedure: B. Kinase assays. Kinase samples were assessed for their ability to phosphorylate 500 μM Raf-1 peptide (33,[…]345) (SEQ ID NO:4) in the presence of 500 μMATP (containing 2 μCi [γ-^32P]-ATP at 30° C. for 10 minutes. Incubations were analyzed by P-81 phosphocellulose paper assay. Phosphorylation of serine 338/339 in Raf-CR3 was determined by similar incubations containing 1 μg of substrate at 30° C. for 30-60 minutes. Proteins were resolved by SDS-PAGE, transferred to Immobilon-P and the dried, Ponceau S-stained membranes were autoradiographed. Raf-1 kinase activity was measured by the coupled assay method using GST-Mek 1, GST-Erk1 and myelin basic protein by the method of D. Stokoe et al., Science, 264, 1463 (1994).
D. Expression of recombinant Raf-CR3 in E. Coli. DNA sequences encoding residues 307-648 of human c-Raf-1 were amplified by polymerase chain reaction using the 5′-primer […] (SEQ ID NO:5) and the 3′-primer […] (SEQ ID NO:6). The amplified DNA was purified, digested with EcoRI and XhoI and cloned into the Stratagene pCAL-n vector. The entire Raf-CR3 coding sequence was verified by termination reaction PCR DNA sequencing. Raf-CR3 D338E339 and A338A339 substitution mutants were generated by site-directed mutagenesis using the Promega Altered SitesTM in vitro mutagenesis system. Raf-CR3-calmodulin binding protein fusions were expressed in E. coli strain BL21 (pLysS). […]

B1: Immunoprecipitated PAK3: full-length PAK3 immunoprecipitated directly from rat spleen lysates with an anti-PAK3 antibody (protein)
chain: SDNGELEDKPPAPPVRMSSTIFSTGGKDPLSANHSLKPLPSVPEEKKPRNKIISIFSSTEKGSKKKEKERPEISPPSDFEHTIHVGFDAVTGEFTGMPEQWARLLQTSNITKLEQKKNPQAVLDVLKFYDSNTVKQKYLSFTPPEKDGFPSGTPALNTKGSETSAVVTEEDDDDEDAAPPVIAPRPDHTKSIYTRSVIDPIPAPVGDSNVDSGAKSSDKQKKKAKMTDEEIMEKLRTIVSIGDPKKKYTRYEKIGQGASGTVFTATDVALGQEVAIKQINLQKQPKKELIINEILVMKELKNPNIVNFLDSYLVGDELFVVMEYLAGGSLTDVVTETCMDEAQIAAVCRECLQALEFLHANQVIHRDIKSDNVLLGMEGSVKLTDFGFCAQITPEQSKRSTMVGTPYWMAPEVVTRKAYGPKVDIWSLGIMAIEMVEGEPPYLNENPLRALYLIATNGTPELQNPEKLSPIFRDFLNRCLEMDVEKRGSAKELLQHPFLKLAKPLSSLTPLILAAKEAMKSNR
phosphate incorporated into wild type Raf-CR3 versus Raf-CR3[D338E339] or Raf-CR3[A338A339] mutants: 4 fold
